Data reported in publication PMC9419707 (Nature, 2022).

Target: T1, His6–GFP–POU2F3 (UniProt Q9UKI9 1-436)
T1 sequence (looked up): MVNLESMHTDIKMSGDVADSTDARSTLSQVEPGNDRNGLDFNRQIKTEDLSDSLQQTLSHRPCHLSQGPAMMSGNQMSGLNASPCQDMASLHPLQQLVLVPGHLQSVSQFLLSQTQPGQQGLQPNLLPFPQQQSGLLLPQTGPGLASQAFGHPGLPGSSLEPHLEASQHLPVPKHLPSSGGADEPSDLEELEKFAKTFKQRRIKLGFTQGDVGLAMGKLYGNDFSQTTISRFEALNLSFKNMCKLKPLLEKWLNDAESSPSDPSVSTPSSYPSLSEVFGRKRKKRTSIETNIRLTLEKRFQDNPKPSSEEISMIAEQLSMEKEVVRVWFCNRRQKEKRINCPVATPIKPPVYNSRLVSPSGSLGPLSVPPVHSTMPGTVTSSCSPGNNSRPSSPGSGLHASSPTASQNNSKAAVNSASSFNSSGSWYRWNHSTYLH
Experiment: SEC

binding result: binds
B1: Strep2SUMO–OCA-B (natural protein, UniProt Q16633 1-256, looked up)
chain: MLWQKPTAPEQAPAPARPYQGVRVKEPVKELLRRKRGHASSGAAPAPTAVVLPHQPLATYTTVGPSCLDMEGSVSAVTEEAALCAGWLSQPTPATLQPLAPWTPYTEYVPHEAVSCPYSADMYVQPVCPSYTVVGPSSVLTYASPPLITNVTTRSSATPAVGPPLEGPEHQAPLTYFPWPQPLSTLPTSTLQYQPPAPALPGPQFVQLPISIPEPVLQDMEDPRRAASSLTIDKLLLEEEDSDAYALNHTLSVEGF
